For assay [1], the target named is Full-length mouse His-PERIOD2-flag (mouse, UniProt O54943 1-1257). Put plainly: pull-down.
The target in assay [2] is TAMRA-BMAL1 mTAD WT probe (mouse). As to the kind of experiment: fluorescence polarisation.
Assay [3] has as its target TAMRA-BMAL1 mTAD Δswitch probe (594-F619Y) (mouse). Put plainly: fluorescence polarisation.
For assay [4], the target named is BMAL1 transactivation domain (TAD), residues 579-626 (mouse). As to the kind of experiment: ITC.

Sequence of Full-length mouse His-PERIOD2-flag (O54943 whole entry): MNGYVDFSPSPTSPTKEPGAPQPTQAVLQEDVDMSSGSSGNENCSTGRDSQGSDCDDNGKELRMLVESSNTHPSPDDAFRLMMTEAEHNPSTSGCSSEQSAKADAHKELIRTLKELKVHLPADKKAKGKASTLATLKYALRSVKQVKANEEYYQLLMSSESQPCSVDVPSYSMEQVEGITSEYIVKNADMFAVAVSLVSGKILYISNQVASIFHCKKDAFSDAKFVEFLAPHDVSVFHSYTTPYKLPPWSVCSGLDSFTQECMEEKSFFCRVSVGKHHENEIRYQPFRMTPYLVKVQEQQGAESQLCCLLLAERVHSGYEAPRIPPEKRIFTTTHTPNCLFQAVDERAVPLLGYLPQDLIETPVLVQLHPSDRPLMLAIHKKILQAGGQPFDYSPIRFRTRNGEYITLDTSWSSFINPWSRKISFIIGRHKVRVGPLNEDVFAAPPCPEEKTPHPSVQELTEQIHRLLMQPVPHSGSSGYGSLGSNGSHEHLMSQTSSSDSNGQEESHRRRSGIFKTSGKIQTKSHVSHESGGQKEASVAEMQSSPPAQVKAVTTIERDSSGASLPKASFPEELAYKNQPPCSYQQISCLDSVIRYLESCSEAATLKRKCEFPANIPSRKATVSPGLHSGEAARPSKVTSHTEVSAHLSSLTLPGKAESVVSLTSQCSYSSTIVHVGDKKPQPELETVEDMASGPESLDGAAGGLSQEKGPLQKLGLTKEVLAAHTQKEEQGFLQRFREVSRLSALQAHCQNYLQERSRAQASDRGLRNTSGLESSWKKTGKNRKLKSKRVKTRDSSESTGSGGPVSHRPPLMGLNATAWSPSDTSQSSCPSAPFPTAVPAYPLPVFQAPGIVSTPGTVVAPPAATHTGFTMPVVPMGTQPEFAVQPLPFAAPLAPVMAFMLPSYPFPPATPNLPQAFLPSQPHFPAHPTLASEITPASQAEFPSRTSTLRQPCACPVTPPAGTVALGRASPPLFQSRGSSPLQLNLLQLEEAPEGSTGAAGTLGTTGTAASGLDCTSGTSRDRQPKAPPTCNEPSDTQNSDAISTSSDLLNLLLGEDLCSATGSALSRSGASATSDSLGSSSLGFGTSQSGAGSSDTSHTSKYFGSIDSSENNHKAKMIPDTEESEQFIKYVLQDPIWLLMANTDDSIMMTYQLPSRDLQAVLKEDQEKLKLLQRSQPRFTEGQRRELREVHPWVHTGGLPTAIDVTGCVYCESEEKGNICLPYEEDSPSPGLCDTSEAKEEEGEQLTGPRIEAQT

B1: CK1δ kinase domain (residues 1-294) (enzyme, human, UniProt P48730 1-294, looked up)
chain: MELRVGNRYRLGRKIGSGSFGDIYLGTDIAAGEEVAIKLECVKTKHPQLHIESKIYKMMQGGVGIPTIRWCGAEGDYNVMVMELLGPSLEDLFNFCSRKFSLKTVLLLADQMISRIEYIHSKNFIHRDVKPDNFLMGLGKKGNLVYIIDFGLAKKYRDARTHQHIPYRENKNLTGTARYASINTHLGIEQSRRDDLESLGYVLMYFNLGSLPWQGLKAATKRQKYERISEKKMSTPIEVLCKGYPSEFATYLNFCRSLRFDDKPDYSYLRQLFRNLFHRQGFSYDYVFDWNMLK
Regarding B1, the binding result in assay [1] was “binds”.

B2: CHRONO minimal repressive domain (MRD), tag form not stated (domain or fragment)
chain: ELETSLNTQGCTTEGDLLFAQKCKELQGFIPPLTDLLNGLKMGRFERGLSSFQQSVAMDRIQRIVGVLQKPQMGERYLGTLLQVEGMLKTWFPQIAAQKSSLGGGKHQLTKHFPSHHSDSAASSPASPMEKMDQTQLGHLALKPK
In assay [2], B2 registered an IC50 of 375 nM and a Kd of 386 nM. This molecule also gave an equilibrium dissociation constant (Kd) in assay [3] of 1540 nM.

B3: His-CHRONO minimal repressive domain (MRD) (domain or fragment)
chain: ELETSLNTQGCTTEGDLLFAQKCKELQGFIPPLTDLLNGLKMGRFERGLSSFQQSVAMDRIQRIVGVLQKPQMGERYLGTLLQVEGMLKTWFPQIAAQKSSLGGGKHQLTKHFPSHHSDSAASSPASPMEKMDQTQLGHLALKPK
In assay [4], B3 showed a Kd of 369 nM and a stoichiometry N of 1.

(Values after article doi:10.1101/2022.10.04.510902 (bioRxiv, 2022).)
